Reference: patent US20210181204A1 (SYNGENTA PARTICIPATIONS, published 2021)

T1: mCry3A insecticidal protein (Bacillus thuringiensis subsp. …, UniProt P0A379 48-644, limits assumed)
T1 construct: also called modified Cry3A
T1 sequence: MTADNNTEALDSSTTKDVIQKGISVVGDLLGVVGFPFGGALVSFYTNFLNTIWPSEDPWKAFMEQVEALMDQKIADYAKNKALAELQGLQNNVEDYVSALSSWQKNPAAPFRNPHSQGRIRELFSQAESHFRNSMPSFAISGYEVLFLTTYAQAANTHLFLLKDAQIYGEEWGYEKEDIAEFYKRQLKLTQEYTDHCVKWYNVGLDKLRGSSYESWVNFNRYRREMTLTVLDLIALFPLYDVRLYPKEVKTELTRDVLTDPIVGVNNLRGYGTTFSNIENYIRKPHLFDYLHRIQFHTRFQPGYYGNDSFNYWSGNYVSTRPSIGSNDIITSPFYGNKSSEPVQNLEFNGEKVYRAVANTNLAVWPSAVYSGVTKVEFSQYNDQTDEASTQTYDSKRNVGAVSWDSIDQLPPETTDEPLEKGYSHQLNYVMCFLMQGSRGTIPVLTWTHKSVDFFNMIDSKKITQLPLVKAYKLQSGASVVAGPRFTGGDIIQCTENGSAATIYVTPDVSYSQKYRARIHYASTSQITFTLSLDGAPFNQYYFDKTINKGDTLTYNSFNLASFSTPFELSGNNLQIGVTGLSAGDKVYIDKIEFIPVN

B1: synNAPS2 variant K7A (designed binder)
chain: RGSHHHHHHGSMVKVKFAYKGEEKEVDTSKIVWIGRFGKSVYFRYDDNGKTGAGRVYEKDAPKELLDMLARAEREKK
B2: synNAPS2 variant K9A (designed binder)
chain: RGSHHHHHHGSMVKVKFKYAGEEKEVDTSKIVWIGRFGKSVYFRYDDNGKTGAGRVYEKDAPKELLDMLARAEREKK
B3: synNAPS2 variant R33A (designed binder)
chain: RGSHHHHHHGSMVKVKFKYKGEEKEVDTSKIVWIGRFGKSVYFAYDDNGKTGAGRVYEKDAPKELLDMLARAEREKK
B4: synNAPS2 variant Y46A (designed binder)
chain: RGSHHHHHHGSMVKVKFKYKGEEKEVDTSKIVWIGRFGKSVYFRYDDNGKTGAGRVAEKDAPKELLDMLARAEREKK
B5: synNAPS2 variant F26A (designed binder)
chain: RGSHHHHHHGSMVKVKFKYKGEEKEVDTSKIVWIGRAGKSVYFRYDDNGKTGAGRVYEKDAPKELLDMLARAEREKK
B6: synNAPS2 variant T40A (designed binder)
chain: RGSHHHHHHGSMVKVKFKYKGEEKEVDTSKIVWIGRFGKSVYFRYDDNGKAGAGRVYEKDAPKELLDMLARAEREKK
B7: synNAPS2 variant I23A (designed binder)
chain: RGSHHHHHHGSMVKVKFKYKGEEKEVDTSKIVWAGRFGKSVYFRYDDNGKTGAGRVYEKDAPKELLDMLARAEREKK
B8: synNAPS2 variant V21A (designed binder)
chain: RGSHHHHHHGSMVKVKFKYKGEEKEVDTSKIAWIGRFGKSVYFRYDDNGKTGAGRVYEKDAPKELLDMLARAEREKK
B9: synNAPS2 variant Y8A (designed binder)
chain: RGSHHHHHHGSMVKVKFKAKGEEKEVDTSKIVWIGRFGKSVYFRYDDNGKTGAGRVYEKDAPKELLDMLARAEREKK
B10: synNAPS2 variant G24A (designed binder)
chain: RGSHHHHHHGSMVKVKFKYKGEEKEVDTSKIVWIARFGKSVYFRYDDNGKTGAGRVYEKDAPKELLDMLARAEREKK
B11: synNAPS-9 ligand (designed binder)
chain: MVKVKFAQGGEEKEVDTSKIYRVPRHGKIVFFMYDDNGKGGFGHVTEKDAPKELLDMLARAEREKK
B12: synNAPS-1tag ligand (designed binder)
chain: MRGSHHHHHHGSVKVKFGPWGEEKEVDTSKIVDVWRWGKYVDFFYDDNGKVGIGSVTEKDAPKELLDMLARAEREKKLGSGLNDIFEAQKIEWH
modifications: in vivo biotinylation (E. coli BirA strain) on the C-terminal avidin-tag
notes: also called tagged synNAPS 1
B13: synNAPS-2 ligand (designed binder)
chain: MVKVKFKYKGEEKEVDTSKIVWIGRFGKSVYFRYDDNGKTGAGRVYEKDAPKELLDMLARAEREKK
B14: synNAPS-10tag ligand (designed binder)
chain: MRGSHHHHHHGSVKVKFLMKGEEKEVDTSKIKWVNRHGKYVAFYYDDNGKTGGGEVREKDAPKELLDMLARAEREKKLGSGLNDIFEAQKIEWH
modifications: in vivo biotinylation (E. coli BirA strain) on the C-terminal avidin-tag
notes: also called tagged synNAPS 10
B15: synNAPS9 variant F31A (designed binder)
chain: RGSHHHHHHGSMVKVKFAQGGEEKEVDTSKIYRVPRHGKIVAFMYDDNGKGGFGHVTEKDAPKELLDMLARAEREKK
B16: synNAPS9 variant G40A (designed binder)
chain: RGSHHHHHHGSMVKVKFAQGGEEKEVDTSKIYRVPRHGKIVFFMYDDNGKAGFGHVTEKDAPKELLDMLARAEREKK
B17: synNAPS9 variant P24A (designed binder)
chain: RGSHHHHHHGSMVKVKFAQGGEEKEVDTSKIYRVARHGKIVFFMYDDNGKGGFGHVTEKDAPKELLDMLARAEREKK
B18: synNAPS9 variant G9A (designed binder)
chain: RGSHHHHHHGSMVKVKFAQAGEEKEVDTSKIYRVPRHGKIVFFMYDDNGKGGFGHVTEKDAPKELLDMLARAEREKK
B19: synNAPS9 variant H26A (designed binder)
chain: RGSHHHHHHGSMVKVKFAQGGEEKEVDTSKIYRVPRAGKIVFFMYDDNGKGGFGHVTEKDAPKELLDMLARAEREKK
B20: synNAPS9 variant R22A (designed binder)
chain: RGSHHHHHHGSMVKVKFAQGGEEKEVDTSKIYAVPRHGKIVFFMYDDNGKGGFGHVTEKDAPKELLDMLARAEREKK
B21: synNAPS9 variant F42A (designed binder)
chain: RGSHHHHHHGSMVKVKFAQGGEEKEVDTSKIYRVPRHGKIVFFMYDDNGKGGAGHVTEKDAPKELLDMLARAEREKK
B22: synNAPS9 variant Y21A (designed binder)
chain: RGSHHHHHHGSMVKVKFAQGGEEKEVDTSKIARVPRHGKIVFFMYDDNGKGGFGHVTEKDAPKELLDMLARAEREKK
B23: synNAPS13 variant K7A (designed binder)
chain: RGSHHHHHHGSMVKVKFARWGEEKEVDTSKILHVLRVGKYVRFSYDDNGKLGAGYVTEKDAPKELLDMLARAEREKK
B24: synNAPS13 variant L21A (designed binder)
chain: RGSHHHHHHGSMVKVKFKRWGEEKEVDTSKIAHVLRVGKYVRFSYDDNGKLGAGYVTEKDAPKELLDMLARAEREKK
B25: synNAPS13 variant L40A (designed binder)
chain: RGSHHHHHHGSMVKVKFKRWGEEKEVDTSKILHVLRVGKYVRFSYDDNGKAGAGYVTEKDAPKELLDMLARAEREKK
B26: synNAPS13 variant L24A (designed binder)
chain: RGSHHHHHHGSMVKVKFKRWGEEKEVDTSKILHVARVGKYVRFSYDDNGKLGAGYVTEKDAPKELLDMLARAEREKK
B27: synNAPS13 variant W9A (designed binder)
chain: RGSHHHHHHGSMVKVKFKRAGEEKEVDTSKILHVLRVGKYVRFSYDDNGKLGAGYVTEKDAPKELLDMLARAEREKK
B28: synNAPS13 variant R8A (designed binder)
chain: RGSHHHHHHGSMVKVKFKAWGEEKEVDTSKILHVLRVGKYVRFSYDDNGKLGAGYVTEKDAPKELLDMLARAEREKK
B29: synNAPS13 variant V26A (designed binder)
chain: RGSHHHHHHGSMVKVKFKRWGEEKEVDTSKILHVLRAGKYVRFSYDDNGKLGAGYVTEKDAPKELLDMLARAEREKK
B30: synNAPS13 variant Y29A (designed binder)
chain: RGSHHHHHHGSMVKVKFKRWGEEKEVDTSKILHVLRVGKAVRFSYDDNGKLGAGYVTEKDAPKELLDMLARAEREKK
B31: synNAPS13 variant T46A (designed binder)
chain: RGSHHHHHHGSMVKVKFKRWGEEKEVDTSKILHVLRVGKYVRFSYDDNGKLGAGYVAEKDAPKELLDMLARAEREKK
B32: synNAPS13 variant S33A (designed binder)
chain: RGSHHHHHHGSMVKVKFKRWGEEKEVDTSKILHVLRVGKYVRFAYDDNGKLGAGYVTEKDAPKELLDMLARAEREKK

Columns and labels:
[1] = target: T2, Cry1Ab insecticidal protein (Bacillus thuringiensis, UniProt P0A370 1-615); experiment: direct ELISA: Cry1Ab coated at 1 ug/ml, RGS-His HRP detection
[2] = target: T1, mCry3A insecticidal protein; experiment: direct ELISA: mCry3A coated at 1 ug/ml, RGS-His HRP detection
[3] = target: T2, Cry1Ab insecticidal protein; experiment: direct ELISA, coated protein, SA-AP, 405 nm
[4] = target: eCry3.1Ab hybrid insecticidal protein; experiment: direct ELISA, coated protein, SA-AP, 405 nm
[5] = target: T1, mCry3A insecticidal protein; experiment: direct ELISA, coated protein, SA-AP, 405 nm
[6] = target: Cry1Aa insecticidal protein (Bacillus thuringiensis subsp. aizawai, UniProt P0A367 12-1176); experiment: direct ELISA, coated protein, SA-AP, 405 nm
[7] = target: Cry1Ai insecticidal protein; experiment: direct ELISA, coated protein, SA-AP, 405 nm
[8] = target: Cry1Ab.1Ca insecticidal protein; experiment: direct ELISA, coated protein, SA-AP, 405 nm
[9] = target: eCry3.1Ab hybrid insecticidal protein; experiment: direct ELISA: eCry3.1Ab coated at 1 ug/ml, RGS-His HRP detection

Row | Binder | Binding (OD 450 nm) [1] [OD 450 nm] | Binding (OD 450 nm) [9] [OD 450 nm] | further results
1 | B1 | 4 |  | 
2 | B2 | 4 |  | 
3 | B3 | 2.2 |  | 
4 | B4 | 3.5 |  | 
5 | B5 | 3.7 |  | 
6 | B6 | 4 |  | 
7 | B7 | 3.2 |  | 
8 | B8 | 3.8 |  | 
9 | B9 | 2.4 |  | 
10 | B10 | 4 |  | 
11 | B11 |  |  | Binding (OD 450 nm) [2]: 2.5 OD 450 nm
12 | B12 |  |  | binding result [3]: no binding (tested: 10 nM); binding result [4]: no binding (tested: 10 nM); binding result [5]: no binding (tested: 10 nM); binding result [6]: no binding (tested: 10 nM); binding result [7]: no binding (tested: 10 nM); binding result [8]: no binding (tested: 10 nM)
13 | B13 | 4 |  | 
14 | B14 |  |  | binding result [3]: no binding (tested: 10 nM); binding result [4]: no binding (tested: 10 nM); binding result [5]: no binding (tested: 10 nM); binding result [6]: no binding (tested: 10 nM); binding result [7]: no binding (tested: 10 nM); binding result [8]: no binding (tested: 10 nM)
15 | B15 |  |  | Binding (OD 450 nm) [2]: 1.4 OD 450 nm
16 | B16 |  |  | Binding (OD 450 nm) [2]: 1.7 OD 450 nm

Row | Binder | Binding (OD 450 nm) [1] [OD 450 nm] | Binding (OD 450 nm) [9] [OD 450 nm] | further results
17 | B17 |  |  | Binding (OD 450 nm) [2]: 0.5 OD 450 nm
18 | B18 |  |  | Binding (OD 450 nm) [2]: 1.5 OD 450 nm
19 | B19 |  |  | Binding (OD 450 nm) [2]: 1.8 OD 450 nm
20 | B20 |  |  | Binding (OD 450 nm) [2]: 1 OD 450 nm
21 | B21 |  |  | Binding (OD 450 nm) [2]: 0.2 OD 450 nm
22 | B22 |  |  | Binding (OD 450 nm) [2]: 1.8 OD 450 nm
23 | B23 |  | 3 | 
24 | B24 |  | 1.8 | 
25 | B25 |  | 0.5 | 
26 | B26 |  | 1.1 | 
27 | B27 |  | 1 | 
28 | B28 |  | 2.4 | 
29 | B29 |  | 1.8 | 
30 | B30 |  | 2.6 | 
31 | B31 |  | 4.1 | 
32 | B32 |  | 4.1 | 
